Reference: patent publication US20180305451A1 (COMPUGEN, published 2018)

T1: human HIDE1-flag (human, UniProt A8MVS5 20-230)
T1 construct: Over-expressed on HEK293, SK-MEL-5, CHO-S and CHO-S OKT3 cells (pMSCV or pcDNA3.1); whole cell extracts in WB; Entry includes the signal peptide; also called hHIDE1 Flag
T1 sequence: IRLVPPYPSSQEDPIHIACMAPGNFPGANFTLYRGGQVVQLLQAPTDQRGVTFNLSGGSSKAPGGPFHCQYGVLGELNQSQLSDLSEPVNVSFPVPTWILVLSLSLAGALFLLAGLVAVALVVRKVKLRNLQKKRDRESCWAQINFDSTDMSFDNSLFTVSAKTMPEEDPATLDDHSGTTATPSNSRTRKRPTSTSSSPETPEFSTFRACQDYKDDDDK

T2: mouse HIDE1 (mouse, UniProt Q75VT8 22-222)
T2 construct: Endogenous on EL4, YAC-1, J774A.1/J774A.2 cells; also called AB124611; mHIDE1
T2 sequence: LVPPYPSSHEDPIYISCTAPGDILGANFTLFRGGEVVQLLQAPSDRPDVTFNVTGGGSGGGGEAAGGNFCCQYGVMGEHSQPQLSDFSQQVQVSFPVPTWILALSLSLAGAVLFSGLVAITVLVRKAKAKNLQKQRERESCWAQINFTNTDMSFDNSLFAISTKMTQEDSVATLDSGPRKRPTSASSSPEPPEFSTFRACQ

T3: human HIDE1 (human, UniProt A8MVS5 20-230)
T3 construct: Endogenous on U937, HL-60, THP-1 cells, blood monocytes, AML blasts and dendritic cells; also called C19orf38; hHIDE1
T3 sequence: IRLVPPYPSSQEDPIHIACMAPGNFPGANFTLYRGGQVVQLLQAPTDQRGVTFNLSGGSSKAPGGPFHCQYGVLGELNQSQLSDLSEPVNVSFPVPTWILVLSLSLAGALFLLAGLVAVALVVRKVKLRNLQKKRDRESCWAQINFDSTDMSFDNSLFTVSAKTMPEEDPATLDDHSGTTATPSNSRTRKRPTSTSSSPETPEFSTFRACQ


Tests used:
[1] = biological target: T4, HIDE1_HH-1 (Human ECD + human IgG1 Fc mutated C220S at hinge), without SP (human); experiment: BLI Octet RED384, bivalent Fab-A-FH
T4 construct: Batch #280 in the Serotec and phage display work; also called HIDE1 hECD-hIg; HIDE1 (H:H) recombinant Fc fusion protein

human HIDE1-flag [2] = biological target: T1, human HIDE1-flag; experiment: FACS, HEK293 human HIDE1 Flag cells vs HEK293 empty vector, goat anti-human IgG F(ab')2-PE
human HIDE1-flag [3] = biological target: T1, human HIDE1-flag; experiment: FACS titration on CHO-S cells over-expressing human HIDE1 Flag (curves in FIG. 96A)
Experimental: (§1) FIG. 96: Affinity measurements using FACS application for the anti-human HIDE1 reformatted Fab's on CHO-S cells over-expressing human HIDE1 Flag protein. (A)CHO-S cells over-expressing the human HIDE1 Flag (circle dots) or HEK293 transduced with empty vector (square dots) were analyzed by FACS using Serotec anti-Human HIDE1 reformatted antibodies (1-5) in 7 concentrations-series dilution 1:3, 10-0.01 μg/ml. Detection was carried out using Goat Anti Human-PE secondary Ab. (B) Summary table of Serotec anti-human HIDE1 reformatted antibodies 1-5 FACS analysis, the Geo mean ratio of HEK293 cells over-expressing the human HIDE1 Flag/HEK293 transduced with empty vector and the cross reactive validation, the Geo-mean ratio of HEK293 cells over-expressing the mouse/cyno HIDE1 Flag/HEK293 transduced/transfected with empty vector. And Kd (nM) for each reformatted Fab.
The affinity The affinity measurements of the reformatted Serotec's Ab's (full hIgG1 Abs) against human HIDE1, using FACS application were tested using CHO-S cell over-expressing human HIDE1. CHO-S cells transduced with an empty vector were used as a negative control.
As shown in FIG. 96. the binding of 5 out of 5 anti-human HIDE1 reformatted Ab's (1-5) to the CHO-S cells over-expressing human HIDE1 Flag protein (circle dots) is higher than the binding of these reformatted Ab's to the empty vector cells (square dots). Two of the five antibodies (2 and 3) reaches saturation at the concentrations that were measured. The Kd value and R square are represented in the figure.

human HIDE1-flag [4] = biological target: T1, human HIDE1-flag; experiment: FACS, Geo mean ratio of HEK293 cells over-expressing human HIDE1 Flag to HEK293 empty vector, antibody 10 ug/ml
Experimental: as §1
The performance of the reformatted Serotec's antibodies against human HIDE1, in FACS application were tested using HEK293 cell over-expressing human HIDE1 Flag, mouse HIDE1 or cyno HIDE1. HEK293 cells transduced/transfected with an empty vector were used as a negative control

mouse HIDE1 = biological target: T2, mouse HIDE1; experiment: FACS on 293T-moHIDE1 cells, human IgG4
Experimental: (§2) FACS screening of reformatted IgG4 antibodies: The cell lines described in paragraph [001066] (“FACS screening of PPE”) were mixed with FACS buffer containing the purified anti-HIDE1 IgGs or isotype controls. […] Cells were washed again and fluorescence was detected using an Intellicyt HTFC screening system (Intellicyt). Data were analyzed using FCS Express (DeNovo) and plotted for affinity calculations (KD) in GraphPad Prism (GraphPad Software, Inc.). Note that each anti-HIDE1 antibody was tested over a titration range from 0-80 μg/mL.
(§3) Overview of FACS binding results for human IgG4 antibodies reformatted from Fab screening hits. […] IgGs from the same H-CDR3 family are indicated by the same color, either blue or green. CPA.12.003 & CPA.12.008 have identical heavy chain CDR-3 regions and minor differences in framework regions or other CDRs. The same holds for CPA.12.004 & CPA.12.013. N.B. not binding.

human HIDE1 = biological target: T3, human HIDE1; experiment: FACS titration on 293T-huHIDE1 cells, human IgG4 (preliminary FACS KD)
Experimental: as §2, §3

T4 sequence (chain, as listed by the source C220S C220S limits assumed): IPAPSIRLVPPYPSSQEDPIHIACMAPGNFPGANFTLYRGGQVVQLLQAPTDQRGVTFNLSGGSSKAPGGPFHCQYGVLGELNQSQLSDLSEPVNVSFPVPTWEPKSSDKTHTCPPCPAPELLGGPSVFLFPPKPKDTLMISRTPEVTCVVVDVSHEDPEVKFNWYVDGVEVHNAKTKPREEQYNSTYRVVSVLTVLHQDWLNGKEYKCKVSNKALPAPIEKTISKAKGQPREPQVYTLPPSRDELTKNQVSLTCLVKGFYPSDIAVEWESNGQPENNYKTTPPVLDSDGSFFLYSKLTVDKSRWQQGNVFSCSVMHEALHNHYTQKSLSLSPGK

| Kd (human HIDE1-flag [3]) | rMFI OX/EV, 10ug/ml, hHIDE1 (human HIDE1-flag [4]) | Binder | further results |
| --- | --- | --- | --- |
| – | – | αhHIDE1_AbD25753.1_Ser_Fab (Fab, Serotec HuCAL Fab-A-FH) heavy: EVQLVQSGAEVKKPGESLKISCKGSGYSFTNYWIHWVRQMPGKGLEWMGIIDPGNSFTRYSPSFQGQVTISADKSISTAYLQWSSLKASDTAMYYCARGDGLYGGSDGYSMGGFDNWGQGTLVTVSSASTKGPSVFPLAPSSKSTSGGTAALGCLVKDYFPEPVTVSWNSGALTSGVHTFPAVLQSSGLYSLSSVVTVPSSSLGTQTYICNVNHKPSNTKVDKKVEPKSEFKAEMPVLENRAAQGDITTPGGARRLTGDQTAALRDSLSDKPAKNIILLIGDGMGDSEITAARNYAEGAGGFFKGIDALPLTGQYTHYALNRKTGKPDYVTSSAASATAWSTGVKTYNGALGVDIHEKDHPTILEMAKAAGLATGNVSTAELQDATPAALVAHVTSRKCYGPSATSEKCPGNALEKGGKGSITEQLLNARADVTLGGGAKTFAETATAGEWQGKTLREQAQARGYQLVSDAASLNSVTEANQQKPLLGLFADGNMPVRWLGPKATYHGNIDKPAVTCTPNPQRNDSVPTLAQMTDKAIELLSKNEKGFFLQVEGASIDKQDHAANPCGQIGETVDLDEAVQRALEFAKKEGNTLVIVTADHAHASQIVAPDTKAPGLTQALNTKDGAVMVMSYGNSEEDSQEHTGSQLRIAAYGPHAANVVGLTDQTDLFYTMKAALGLKGAPDYKDDDDKGAPHHHHHH light: not shown | Kd [1]: 0.07 nM; koff [1]: 4.45e-05 s⁻¹; FACS analysis (GeoMean fold) human HIDE1/empty vector (human HIDE1-flag [2]): 150 fold |
| 9.85 nM | 270 | αhHIDE1_AbD25754_hIgG1_Ser_mAb (antibody, V domains shown) VH: QVQLVQSGAEVKKPGASVKVSCKASGYTFSGYGMHWVRQAPGQGLEWMGIISPSNGNTNYAQKFQGRVTMTRDTSISTAYMELSRLRSEDTAVYYCAREVYYGLDVWGQGTLVTVSS VL: DIQMTQSPSSLSASVGDRVTITCRASQSISSWLNWYQQKPGKAPQLLIYGASSLQSGVPSRFSGSGSGTDFTLTISSLQPEDFATYYCQQYISIPITFGQGTKVEIK | – |
| 45.4 nM | 236 | αhHIDE1_AbD25755_hIgG1_Ser_mAb (antibody, V domains shown) VH: QVQLVQSGAEVKKPGSSVKVSCKASGGTFSSYAISWVRQAPGQGLEWMGGIVPKFGTAYYAQKFQGRVTITADESTSTAYMELSSLRSEDTAVYYCARENLVYSAIAIWGQGTLVTVSS VL: DIQMTQSPSSLSASVGDRVTITCRASQDISNWLNWYQQKPGKAPKLLIYGASSLQSGVPSRFSGSGSGTDFTLTISSLQPEDFATYYCQQVTSTPFTFGQGTKVEIK | – |
| – | – | αhHIDE1_AbD25754.1_Ser_Fab (Fab, Fab-A-FH format: the Fd chain carries bacterial alkaline phosphatase (which dimerises it, making the Fab bivalent), then FLAG and His6; all of these are in the letters., Serotec HuCAL Fab-A-FH; also called Ab332) heavy: QVQLVQSGAEVKKPGASVKVSCKASGYTFSGYGMHWVRQAPGQGLEWMGIISPSNGNTNYAQKFQGRVTMTRDTSISTAYMELSRLRSEDTAVYYCAREVYYGLDVWGQGTLVTVSSASTKGPSVFPLAPSSKSTSGGTAALGCLVKDYFPEPVTVSWNSGALTSGVHTFPAVLQSSGLYSLSSVVTVPSSSLGTQTYICNVNHKPSNTKVDKKVEPKSEFKAEMPVLENRAAQGDITTPGGARRLTGDQTAALRDSLSDKPAKNIILLIGDGMGDSEITAARNYAEGAGGFFKGIDALPLTGQYTHYALNRKTGKPDYVTSSAASATAWSTGVKTYNGALGVDIHEKDHPTILEMAKAAGLATGNVSTAELQDATPAALVAHVTSRKCYGPSATSEKCPGNALEKGGKGSITEQLLNARADVTLGGGAKTFAETATAGEWQGKTLREQAQARGYQLVSDAASLNSVTEANQQKPLLGLFADGNMPVRWLGPKATYHGNIDKPAVTCTPNPQRNDSVPTLAQMTDKAIELLSKNEKGFFLQVEGASIDKQDHAANPCGQIGETVDLDEAVQRALEFAKKEGNTLVIVTADHAHASQIVAPDTKAPGLTQALNTKDGAVMVMSYGNSEEDSQEHTGSQLRIAAYGPHAANVVGLTDQTDLFYTMKAALGLKGAPDYKDDDDKGAPHHHHHH light: not shown | Kd [1]: 0.1 nM; koff [1]: 6.09e-05 s⁻¹; FACS analysis (GeoMean fold) human HIDE1/empty vector (human HIDE1-flag [2]): 145 fold |
| 10.8 nM | 276 | αhHIDE1_AbD25753_hIgG1_Ser_mAb (antibody, V domains shown) VH: EVQLVQSGAEVKKPGESLKISCKGSGYSFTNYWIHWVRQMPGKGLEWMGIIDPGNSFTRYSPSFQGQVTISADKSISTAYLQWSSLKASDTAMYYCARGDGLYGGSDGYSMGGFDNWGQGTLVTVSS VL: DIQMTQSPSSLSASVGDRVTITCRASQTIWNYLAWYQQKPGKAPKLLIYDASNLQSGVPSRFSGSGSGTDFTLTISSLQPEDFATYYCQQYSHFPHTFGQGTKVEIK | – |
| 96.7 nM | 117 | αhHIDE1_AbD25760_hIgG1_Ser_mAb (antibody, V domains shown, also called AB-510; Ab-510) VH: QVQLVQSGAEVKKPGSSVKVSCKASGGTFSDYAINWVRQAPGQGLEWMGGIIPNFGTANYAQKFQGRVTITADESTSTAYMELSSLRSEDTAVYYCARGMRSLGGLSYYFDLWGQGTLVTVSS VL: DIQMTQSPSSLSASVGDRVTITCRASQSINSYLNWYQQKPGKAPKLLIYAASSLQSGVPSRFSGSGSGTDFTLTISSLQPEDFATYYCQQYIHYPITFGQGTKVEIK | – |
| – | – | CPA.12.015 human IgG4 (antibody, V domains shown, also called CPA.12.015-H4) VH: QVQLQESGPGLVKPSETLSLTCTVSGGSISSSSYYWGWIRQPPGKGLEWIGSIYYSGSTHYNPSLKSRVTISVDTSKNQFSLKLSSVTAADTAVYYCARVYYGSGTGGAFDIWGQGTMVTVSS VL: QSVLTQPPSVSGAPGQRVTISCTGSSSNIGAAYDVHWYQQLPGTAPKLLIYGDTIRPSGVPDRFSGSKSGTSASLAITGLQAEDEADYYCQSYDSSLSGSWVFGGGTQLTVLG | binding result (mouse HIDE1): no binding (tested: titration 0-80 µg/mL); Kd (human HIDE1): 11 nM |
